Reference: the DeepSol protein solubility set

Assay: soluble on expression in E. coli; label from the status in PepcDB or PDB records

Row | Sequence | soluble on expression in E. coli
1 | MSLTVTIKDVAKKANVAPSTVSRVIADNPSISEKTKRRVRKVMSELGYHPNLNARSLANQTTKTIGLVMPSSANKAFQNPFFPEVIRGISSFAHVEGYALYMSTGETEEEIFNGVIKMVQGRQIGGIILLYSRENDRIIQYLNEKNFPFVLIGKPYDKKDKITYVDNDNYTAAREVAEYFISLGHKRIAFIGGGSDLLVTKDRLAGMSDALKLADIQLPSEYIFHLDFSRESGQQAVEELMGLKEPPTAIMATDDLIGLGVLSALTAKGISVPKDVSLVSFNNVLLSEIASPPLTTVDVNIYQLGYEAAKALVDKVEHSESSSKCIVIPHKLLKRQTCEGHHHHHH | soluble
2 | MSTEKWRTGLQIQQLHTPTDNVDRSAMKKISSMFSALQEKFQRAKAGAPTPAAVAPPAGRESHCGLRFFEYLLVVSLRKRSSGVGYEPQVTYQFPKREVMGRLQREQEEKSMKAAHLFCFPEGVHWAPVTEYSSETFSFVLTEVDGSRRNGYCRRLLPAGKGARLPEAYCIISHVACFGLFSKIFDEVEKRRQISTAMIYPFMQSLREAPLPSPGSTVSISSFIPDAGTQIIRLTRPADSWLEHVDFTALFSRLNDEELLLVFTAAVLERRIIFISEELSTLSQVLHAVAALLYPFVWQHTFISIVPSVLIDVCEAPTPYLLGVQKSMMGLITDHSDVMIVDLSTGAPTKFITRIGDEESLLPLKLKEELLSGLSARTHHASTEQLNRLVSEAFLSVFVKTVGHFSEHIKRGGKPRQFQKKSFLKAVENKTYSSFVKLFIQTQMFDLFIQEEETQSNPNGFFHRKVKEHRDRMKQEKAKAGWVRGVVI | soluble
3 | MRRAGLGEGVPPGNYGNYGYANSGYSACEEENERLTESLRSKVTAIKSLSIEIGHEVKTQNKLLAEMDSQFDSTTGFLGLCPM | soluble
4 | MNNKLVRSLKYNDVYGELYSYENSSALTVIFPGINYGHEKPLLYYARKAAAQNNIDILCINYKNKISWEDIGKQSIEDVAIEIKGIIKNVIEKKYDNIYFLGKSVGTEIAGCTSSKLNIDNIKFLYLTPIEETLKYIVDRKCIVVSGTKDEFFKSECINKIRENKNVKLMLFEGANHSLEIKDDIIRSLRILDNVAQLYLDFFK | not soluble
5 | MTDNSKIRVVVGMSGGVDSSVTALLLKEQGYDVIGVFMKNWDDTDEFGVCTATEDYKDVAAVADKIGIPYYSVNFEKEYWDRVFEYFLAEYRAGRTPNPDVMCNKEIKFKAFLDYAMTLGADYVATGHYAQVKRDENGTVHMLRGADNGKDQTYFLSQLSQEQLQKTLFPLGHLQKSEVREIAERAGLATAKKKDSTGICFIGEKNFKQFLSQYLPAQKGRMMTIDGRDMGEHAGLMYYTIGQRGGLGIGGQHGGDNQPWFVVGKDLSQNILYVGQGFYHEALMSNSLDASVIHFTREMPEEFTFECTAKFRYRQPDSHVAVHVRGDKAEVVFAEPQRAITPGQAVVFYDGKECLGGGMIDMAYKNGQPCQYI | not soluble
6 | MGSDKIHHHHHHMNKTDIAQDTINAAVWTACDTFRGTVDPSVYKDYVLTMLFLKYVSDVWQDHYDDYKTKHGNKPGLIEELLKNERFVLPHRANFYTLYDQRHRPGNGERIDTALHAIEDANLGKLRDVFQDISFNANKLGEEQQKNDLLRHLLEDFAKPALNLRPSRIGQLDIIGNAYEYLIKNFASSSGKKAGEFYTPPEVSALMARLMDPQQGDEICDPTCGSGSLLLKCGRLIRERTGSGKYALYGQEAIGSTWALAKMNMFLHGEDNHRIEWGDTIRNPKLLAGNHLKHFDIVVANPPFSLEKWGHDSADTDPHDRFRRGLPPRTKGDYAFILHMIATMKPRTGRMAVVVPHGVLFRGAAEGRIRQKLIEENLLDVVIGLPEKLFYGTGIPAAVLVFRTKKKDKKVLFIDASRQYQDGKNQNLLRESDLQRILDTVQARQNVDKYAYLASPDEIAGHDYNLNIPRYVDTFEEEAEIDLMAVRREREQLKGELATLEMQMAAYLKELGYE | not soluble
7 | MAGKLIANLIVMGSGIIGRAMLQAYRKALDNANKTGVAHETINNIRRASKTMTEQEARQILGVSEQSTWEEIAQRYDNLFERNAKSGSFYLQSKVHRAKECLENVYQKNKQDGTPP | soluble
8 | MNPFDMLSPGYQDIWLRLQSERLLLEKRISAKEGELKNLMQFVQNPPFLNFPQYMLPQGPLGAQNQ | not soluble
9 | MILDYIYHSGFAIEAEGVTLIIDYYKDSSETELNKGIVHDRLLQRPGKLYVLASHFHPDHFNREVLTWKEQRPDIIYIFSKDILKHHRAQKEDAIYINKGEEYEDDMLRIQAFGSTDVGISFLIHLQGKSIFHAGDLNNWHWSEESTEQEIRKAEGDFLAEIKYLQAAVPTIDLVMFPVDRRMGKDYMKGAQQFIERIKTTIFVPMHFSEDYEGGNAFRSIAEAGGCRFITITHRGESFDI | not soluble
10 | MSLSISFKDVPAGHWSYKAILDLASKNIVTGYGNGIFGFGDDVTREQVARLMYLQLKPESQENYNNPYNDINDHSTSFKREILALTEMGIFAGDEKGNFRPKASLTREEMAQVLTNAYKLVAKSEHTFVDVDRKSWSNKAISAVQSNRIAAGTGDNMFSPKMNVTREQYVQFLYNATLPYEERPGANQEPKRFANCKEANDAGYYDITRDSPYYGKHLDRDGDGIACERNKSSKEGHHHHHH | not soluble
11 | MSLAGILGFPVAPFNTQGTLEEEALFQNIEFLLNEGLEAIFIACGSGEFQSLSQKEYEQMVEVAVSAAGGKVPVYTGVGGNLSTALDWAQLSEKKGADGYLILPPYLVHGEQEGLYQYAKTIIESTDLNAILYQRDNAVLSVEQIKRLTECEQLVGVKDGVGNMDLNINLVYTIGDRLGWLNGMPMAEVTMPAYLPIGFHSYSSAISNYIPHISRMFYDALKNGNDELVKELYRHVILPINDIRKQRKGYAVSLIKAGMEIMGLNVRNTARPPVGPVEKDHYQQLEAILKQPADRFPKKEGHHHHHH | not soluble
12 | MEDLYPSRQNNQPKILKRKDPVIYTDRSKDNQAPITKEQLDSYEKNGFLQIKNFFSEDEVIDMQKAIFELQDSIKDVASDKVIREPESNDIRSIFHVHQDDNYFQDVANDKRILDIVRHLLGSDVYVHQSRINYKPGFKGKEFDWHSDFETWHVEDGMPRMRAISVSIALSDNYSFNGPLMLIPGSHNYFVSCVGETPDNNYKESLKKQKLGVPDEESLRELTRIGGGISVPTGKAGSVTLFESNTMHGSTSNITPYPRNNLFMVYNSVKNRLVEPFSGGEKRPEYIAVREKQPVYSAVNSAWSHPQFEK | soluble
13 | MSPAITRKRFIAGAVCPACSEQDKIQMWEEDGVPHRECVACGYADTLNAQGQSIPKELGTRVNQNAPKPANPKVQSVQFFPNPKLKKKPDA | not soluble
14 | SSRSGTDPQQRQQASEADAAAATFRANDHQHIRYNPLQDEWVLVSAHRMKRPWQGQVEPQLLKTVPRHDPLNPLCPGAIRANGEVNPQYDSTFLFDNDFPALQPDAPSPGPSDHPLFQAKSARGVCKVMCFHPWSDVTLPLMSVPEIRAVVDAWASVTEELGAQYPWVQIFENKGAMMGCSNPHPHCQVWASSFLPDIAQREERSQQAYKSQHGEPLLMEYSRQELLRKERLVLTSEHWLVLVPFWATWPYQTLLLPRRHVRRLPELTPAERDDLASIMKKLLTKYDNLFETSFPYSMGWHGAPTGSEAGANWDHWQLHAHYYPPLLRSATVRKFMVGYEMLAQAQRDLTPEQAAERLRALPEVHYHLGQKDRETATIA | not soluble
15 | MGSDKIHHHHHHMKVTTISIDLAKNVFQVLGMDCHAKQVFNKRLNRTQLTEFMLQQPNCDVVFEACYSSHYWGRKFLAMGHNVKLIPAQHVTPFVRGSKNDNNDTMAIYEASFRPNIRFVPVKTEEQQEILMLHRIRERLVKEKTACTNQIRGVLVDFGICFAQGYKAFEVAIWDIINDASQRPIIKLMANDFWGEYQSVNTRLDRINTLIKKLIERDPNGKILLSIPGVGPIIASAFVASIGRGQAFNTAKELGVWLGLTPKQFASGHRSVNGSITKRGNGYLRKQLIHGARAVVSHASKKQDDLNLWIMQLRSRKSICSTVVATAHRLARLIWILLQKQVPYVPQYAANQGVNHGTC | not soluble
